Assays:
[1] = system: pathological retinal neovascularization; experiment: Oxygen-induced retinopathy (OIR); type: in vivo, mouse
Method: C57BL/6J mouse pups at postnatal day (P)7 and their fostering mothers (CD1, Charles River) were submitted to 75% oxygen in oxycycler chamber for 5 days. Pups were then returned to normoxia at P12 and administered 100 ng of recombinant human DAND5 intravitreally or similar volume of vehicle in the contralateral eye. Eyes were enucleated at P17 and processed for immunostaining. Ocular globes were initially fixed for 15 min in 4% paraformaldehyde (PFA). Retinas or choroids were collected after eyes dissection in PBS and blocked 1 h in PBS 3% BSA 0.1% Triton X-100TM. Fixation was prolonged in 1% PFA overnight for choroid extraction or eyes sectioning. Prior to sectioning, eyes were maintained in sucrose gradients (10-30%), cryo-preserved in a matrix gel and sliced in 14 μm sections on a cryostat (LeicaTM C[…]). Staining with either FITC-labeled isolectin GS 1B4 (Life technologies corporation), rhodamine phalloidin (Cedarlane Laboratories), phospho-histone H3 (Abcam), Collagen IV (Abcam) or cleaved caspase-3 (Cell Signaling) antibodies were performed on whole and/or sectioned retinas/choroids. Retinas and choroids were then mounted in fluoromount aqueous medium (Sigma-Aldrich). Quantitative analysis of tufts, vaso-obliterated or vessel areas were performed using imageJ/Swift_NVTM as previously described (1). Neovascular tuft formation was quantified by comparing the number of pixels in the affected areas with the total number of pixels in the retina. The avascular area in the retina was measured in the same way using an anti-DAND5/COCO polyclonal goat IgG antibody (AF3047, R&D systems). The effects of DAND5 on postnatal developmental angiogenesis led us to evaluate its effects on pathological angiogenesis by subjecting mouse pups to Oxygen-induced Retinopathy (OIR). Briefly, P7 pups were placed in 75% oxygen for 5 days, leading to vaso-obliteration of the retinal vascular plexus. At P12, pups were returned to room air, which stimulates retinal angiogenesis, and leads to the formation of a pathological vascular retinal network characterized by neovascular tufts (FIG. 5A).

Wnt signaling = experiment: Canonical Wnt signaling in HUVECs (immunoblotting, β-catenin immunofluorescence); type: cell-based, human
Method: FIG. 12 is a panel with a schematic, pictures showing that Dand5 reduces canonical Wnt signaling in HUVECs. HUVECs were plated to confluence and received a 2 h scratch in the presence or absence of Dand5 ([…]) or IWR1 (3 μM). β-catenin (green) localization was examined by immunofluorescence with phalloidin and DAPI (nuclei) to identify the cell boundaries and nucleus. […] Scale bars, […]).
Cells were washed with cold PBS and extracted in Laemmli's buffer, followed by sonication. Samples were run on SDS-PAGE gels and transferred onto nitrocellulose membranes. Membranes were blocked with 5% Bovine Serum Albumin (BSA) and probed with primary antibodies overnight at 4° C.: beta-Catenin (Cell Signaling Technology), phospho-beta-catenin (Cell Signaling Technology), Axin2 (Cell Signaling Technology), beta-Actin (Santa Cruz Technologies). HRP-conjugated secondary antibodies (Vector Laboratories) were used to detect primary antibodies.
We next evaluated the molecular mechanisms underlying the effects of DAND5 on endothelial cells. […] Wnt signaling regulates fundamental aspects of vascular development, including cell fate specification, proliferation and survival. […] HUVECs were treated for up to 24 hours with DAND5 or IWR-1, an inhibitor of Wnt canonical signaling. Protein extracts were harvested and subjected to immunoblotting against downstream effectors of Wnt signaling. […] The levels of β-catenin at different subcellular localizations are regulated by a variety of processes including site-specific phosphorylation of β-catenin. In the absence of an active Wnt signaling, β-catenin localization at cellular junctions is reduced and cytoplasmic β-catenin associates with the destruction complex (6).

[2] = system: human pluripotent stem cells / stem cell-derived human cones; conditions: cited from earlier work
[3] = system: retinal vessels and photoreceptors; type: in vivo, mouse
From the text: FIG. 4 is a panel with a schematic, images and bar graphs showing that chronic intravitreal injections of Dand5 inhibits developmental angiogenesis but is not detrimental to photoreceptor survival. FIG. 4A: Schematic representation of experimental set-up (B-E). Neonatal pups received intravitreal injections of either PBS, Dand5, Flt1-Fc on P1, P7 and P14. Retinas were harvested on P28. FIG. 4B: Isolectin B4 staining of flatmount retinas (P28) described in FIG. 3A. FIG. 4C: Quantification of branch points and vessel length in retinas described in FIG. 3B (n=6 mice/group; *p<0.05, **p<0.01). FIG. 4D: Immunofluorescent images of sectioned retinas described in FIG. 3A stained with antibodies against s-opsin and rhodopsin and DAPI (nuclei). FIG. 4E: Quantification of the number of nuclei present in the outer nuclear layer of retinas treated as described in (4A) (n=4, ns). Patients affected by ocular neovascular diseases such as retinopathy of prematurity (ROP) and wet AMD are typically treated with VEGF inhibitors to control pathological angiogenesis. […] Particularly, studies have shown that long-term treatment with VEGF inhibitors in mice leads to increased photoreceptor apoptosis and thinning of the neural retina (4). We therefore addressed the long-term effects of DAND5 on photoreceptors and the neural retina. […]

[4] = HUVECs treated for up to 24 hours, immunoblotting

B1: DAND5: human recombinant DAND5/COCO biologically active fragment produced in E. coli, predicted 18.2 kDa monomer, R&D systems 3047-CC-050 (protein)
chain: MRPEPQSPRPQSWAAANQTWALGPGALPPLVPASALGSWKAFLGLQKARQLGMGRLQRGQDEVAAVTLPLNPQEVIQGMCKAVPFVQVFSRPGCSAIRLRNHLCFGHCSSLYIPGSDPTPLVLCNSCMPARKRWAPVVLWCLTGSSASRRRVKISTMLIEGCHCSPKA
For B1, the “effect on neovascularization compared with Flt1 Fc” value [1] was “stronger effect on neovascularization than Flt1 Fc”, the pathological neovascularization ([1]; 100 ng intravitreal at P12, retinas at P17) was “significantly reduced pathological neovascularization” and the “revascularization of the central part of the retina” value ([1]; injection at P12, P17) was “not affected”. For the same molecule, the “amount and size of neovascular tufts” value ([1]; injection at P12, P17, compared to PBS) was “significantly reduced”, the “levels of Axin2” value (Wnt signaling; [4]) was “increased levels of Axin2” and the “levels of phosphorylated beta-catenin” value (Wnt signaling; [4]) was “increased levels of phosphorylated beta-catenin”. For the same molecule, the “levels of total beta-catenin” value (Wnt signaling; [4]) was “decreased levels of total beta-catenin”, the “cytoplasmic β-catenin” value (Wnt signaling; confluent HUVECs, 2 h scratch, Dand5 60n/mL or IWR1 3 μM) was “increased cytoplasmic β-catenin” and the β-catenin subcellular localization (Wnt signaling; staining of HUVECs cultured in the presence of DAND5) was “decreased membrane localization and increased internalization of β-catenin in the cytoplasm”. For the same molecule, the “cone photoreceptor differentiation and maintenance” value ([2]; recent study (16)) was “potent inducer of cone photoreceptor differentiation and maintenance”, the “differentiation of human pluripotent stem cells into cone photoreceptors” value ([2]; reference (16)) was “can promote the differentiation of human pluripotent stem cells into cone photoreceptors” and the “photoreceptor apoptosis (cleaved-caspase 3 staining)” value ([3]; mouse, in vivo) was “did not reveal significant apoptosis”. The “retinal blood vessel formation / density of retinal vessels” value ([3]; repeated injections from P1 for 4 weeks) was “striking reduction in blood vessel formation”.

Reference: patent US20220265772A1, “USES OF DAN FAMILY BMP ANTAGONISTS FOR INHIBITING OCULAR NEOVASCULARIZATION AND TREATING OCULAR CONDITIONS” (9636137 Canada Inc., priority 2019, published 2022)
